Assay [1] has as its target T1, human PSMA (prostate specific membrane antigen), full-length, expressed on cells (human, UniProt Q04609 1-750). In words: cell-based or functional assay.
Assay [2] concerns the target T1, human PSMA (prostate specific membrane …). Kind of assay: cell-based or functional assay. The source holds these as a separate data set.

T1 sequence (Q04609 whole entry): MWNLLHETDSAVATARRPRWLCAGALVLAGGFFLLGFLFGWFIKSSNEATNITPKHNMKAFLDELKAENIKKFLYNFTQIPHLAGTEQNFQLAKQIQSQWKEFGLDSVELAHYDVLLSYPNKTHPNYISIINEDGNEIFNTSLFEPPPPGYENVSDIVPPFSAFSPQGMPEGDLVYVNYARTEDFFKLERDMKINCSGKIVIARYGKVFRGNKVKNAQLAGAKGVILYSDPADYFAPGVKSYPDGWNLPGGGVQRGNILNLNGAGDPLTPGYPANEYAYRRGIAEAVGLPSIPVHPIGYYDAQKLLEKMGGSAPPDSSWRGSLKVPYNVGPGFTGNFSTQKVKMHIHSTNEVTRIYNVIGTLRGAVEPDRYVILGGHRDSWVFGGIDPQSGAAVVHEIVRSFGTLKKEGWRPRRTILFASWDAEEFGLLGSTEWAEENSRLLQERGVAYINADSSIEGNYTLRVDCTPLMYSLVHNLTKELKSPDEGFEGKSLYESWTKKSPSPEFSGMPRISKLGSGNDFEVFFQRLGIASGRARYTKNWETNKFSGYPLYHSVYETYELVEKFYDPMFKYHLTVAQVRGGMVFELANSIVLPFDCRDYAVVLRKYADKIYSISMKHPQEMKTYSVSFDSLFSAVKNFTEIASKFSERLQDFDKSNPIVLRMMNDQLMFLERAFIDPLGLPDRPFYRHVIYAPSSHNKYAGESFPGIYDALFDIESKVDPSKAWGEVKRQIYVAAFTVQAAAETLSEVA

B1: HiPEG D-His6 val-cit-PAB-MMAE (other)
VH: EVQLLESGGGLVQPGGSLRLSCAASGFRISDEDMGWVRQAPGKGLEWVSSIYGPSGSTYYADSVKGRFTISRDNSKNTLYLQMNSLRAEDTAVYYCASALEPLSEPLGFWGQGTLVTVSSAAAHHHHHH
modifications: HiPEG val-cit-PAB-MMAE attached via the C-terminal His6 tag
In the case of B1, the “cytotoxicity on PSMA-DU145, 48 h, Mean IC50” value in assay [1] is over 300 nM. Further, in assay [2], the “PSMA-DU145 cytotoxicity assay (72 h), IC50” value was over 100 nM and the “PSMA-DU145 cytotoxicity assay (72 h), IC50 (toxin)” value is over 100 nM.

Source of the values: US20190023807A1 (CRESCENDO BIOLOGICS, published 2019).
